Data on one substance can be found in paper PMC6128908, “Potent PDZ-Domain PICK1 Inhibitors that Modulate Amyloid Beta-Mediated Synaptic Dysfunction” (Scientific Reports, 2018).

For this assay, the target named is PICK1 PDZ domain with an additional C-terminal fusion (NKLQQSAV), oxidized, bCPA-treated dimer (UniProt Q9NRD5). The assay is described as follows: crystal structure; dimeric bCPA-treated PICK1 PDZ with compound 1o; space group P3_(2), one disulfide bridged dimer per asymmetric unit; 1.69 Å.

Turning to “PICK1 PDZ domain with an additional C-terminal fusion (NKLQQSAV), oxidized, bCPA-treated dimer (from UniProt Q9NRD5 1-105) (domain or fragment)”, the stoichiometry N was 2.

As a reminder, the stoichiometry N is a count of units in the complex or per binding partner.
